Experimental data taken from US8088892B2, “Inhibitors of proteins from the Rho-GEF family” (Centre National de la Recherche Scientifique (C.N.R.S.), priority 2002, dated 2012).

T1: p115RhoGEF (Homo sapiens, UniProt Q92888)
T1 construct: p115RhoGEF (a.a. 391-870); expressed in transfected cells; host or cells: yeast
T1 sequence (Q92888 391-870): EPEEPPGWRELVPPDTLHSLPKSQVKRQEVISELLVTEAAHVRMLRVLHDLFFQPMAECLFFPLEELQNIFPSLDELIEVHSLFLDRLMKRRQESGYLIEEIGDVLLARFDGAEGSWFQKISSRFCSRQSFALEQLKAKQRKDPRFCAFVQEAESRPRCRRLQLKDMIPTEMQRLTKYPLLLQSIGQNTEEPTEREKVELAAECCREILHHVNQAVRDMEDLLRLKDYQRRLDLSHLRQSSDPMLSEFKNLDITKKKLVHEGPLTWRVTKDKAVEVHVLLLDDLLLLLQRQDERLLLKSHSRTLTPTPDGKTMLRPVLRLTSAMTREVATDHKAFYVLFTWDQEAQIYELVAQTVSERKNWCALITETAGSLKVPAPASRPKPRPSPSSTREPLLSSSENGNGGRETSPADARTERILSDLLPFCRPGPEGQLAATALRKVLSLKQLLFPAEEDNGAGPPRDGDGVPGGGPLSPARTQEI

T2: Dbl (Homo sapiens, UniProt P10911)
T2 construct: Dbl (a.a. 498-826); expressed in transfected cells; host or cells: yeast
T2 sequence (P10911 498-826): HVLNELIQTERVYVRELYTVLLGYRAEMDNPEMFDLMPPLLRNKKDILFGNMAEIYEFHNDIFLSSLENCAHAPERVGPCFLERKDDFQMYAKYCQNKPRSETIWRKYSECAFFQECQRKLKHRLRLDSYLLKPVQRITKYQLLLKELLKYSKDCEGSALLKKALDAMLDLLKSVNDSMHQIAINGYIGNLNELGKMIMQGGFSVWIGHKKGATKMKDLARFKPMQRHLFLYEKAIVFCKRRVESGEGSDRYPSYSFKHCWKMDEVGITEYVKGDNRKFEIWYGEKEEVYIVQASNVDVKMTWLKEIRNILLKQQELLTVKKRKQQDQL


What was measured:
TrioGEFD2 = TrioGEFD2 (Homo sapiens, UniProt O75962); test: Co-immunoprecipitation of HA-TrioGEFD2 with GFP-TRIPα in COS cells; type: binding; design: using recombinant GST-TrioGEFD2 (a.a. 1848-2298), TrioDH2 (a.a. 1848-2096); made in house; details: anti-GFP IP, anti-HA western blot
Description: HA-TrioGEFD2 was co-expressed with either GFP-TRIPα (right column) or GFP alone (left column). The upper panel represents the immunoprecipitation (IP) with the anti-GFP antibody (α-GEP), followed by a western-blot (WB) using the anti-HA antibody (α-HA) and the two lower panels represent the expression of the proteins in the cell lysates.
The Inventors next wanted to determine the effect of TRIPα on GEFD2-mediated RhoA activation in intact cells. First, it was checked whether TRIPα could bind to TrioGEFD2 in mammalian cells. For that purpose, vectors expressing the variable region of TRIAPα (TRIPα) fused to GFP in the pEGFP-C3 plasmid (Clontech) were designed. GFP or GFP-TRIPα were co-expressed with pMTHA-TroGEFD2 by transfection of COS cells using Lipofectamine Plus (Life Technologies) according to the manufacturer's protocol. Immunoprecipitation of GFP-tagged constructs from COS cell lysates were done with the polyclonal rabbit anti-GFP antibody (Torrey Pines Biolabs, Inc.).

p115RhoGEF = biological target: T1, p115RhoGEF; test: Binding specificity of aptamers in yeast; design: key: +++^1 and +^1 represent respectively a full and a partial (see FIG. 1) binding capacity; +++^1 and +^1 represent respectively a full and a partial (see FIG. 1) binding capacity; −−^1 represents a lack of binding; details: RhoGEF p115RhoGEF
Description: (§1) Trx represents the thioredoxin protein with no inserted peptide.
(§2) In order to identify specific inhibitors of TrioGEFD2, a recently developed strategy was used, this strategy being derived from the yeast two hybrid system, where the cDNA library of preys has been replaced by a combinatorial library of short peptides (20 amino acids) in fusion with the bacterial protein thioredoxin A (Colas et al., 1996). This strategy has been successfully used to isolate specific inhibitors of the cyclin-dependent kinases (Cdks), the cell cycle transcription factor E2F, or the viral HPV16 E6 oncoprotein and HBEV core protein (Colas et al., 1996; Butz et al., 2001; Fabrizzio et al., 1999; Geyer et al., 2000). The TrioGEFD2 bait was constructed as follows: plasmid pMTHATrio1848-2298 (Bellanger et al., 1998) was digested with EcoRI/XhoI and the insert cloned in pEG202EcoRI/XhoI to generate the bait pEG202TroGEFD2. Yeast strain EGY048 (Colas et al., 1996) was transformed with pEG202TrioGEFD2 and subsequently with the library of Thioredoxin constrained aptamers according to standard procedures (Ito et al., 1983). After transformation, cells were allowed to recover for 4 hours in galactose containing medium before plating on selective galactose medium. Of the 2×10^6 screened colonies, those growing in the selective medium were recovered and retested for interaction. […] Binding specificity was investigated by screening for interaction with the following baits: TrioDH2 (a.a. 1848-2096), TrioPH2 (a.a. 2107-2223), TrioGEFD1 (a.a. 1232-1629), Dbl (a.a. 498-826), Vav (ala. 172-598) (Zhang et al, 1994), GEFD2 domain of Kalirin (a.a. 1640-1980)(Penzes et al., 2001), p115RhoGEF (a.a. 391-870)(Wells et al, 2002) and PDZRhoGEF (a.a. 964-1362) (Fukuhara et al., 1999). None of these aptamers interacted with other RhoGEF members such as Dbl, Vav, and the RhoA-specific GEFs p115RhoGEF and PDZRhoGEF.

Vav = test: Binding specificity of aptamers in yeast; design: key: +++^1 and +^1 represent respectively a full and a partial (see FIG. 1) binding capacity; +++^1 and +^1 represent respectively a full and a partial (see FIG. 1) binding capacity; −−^1 represents a lack of binding; details: RhoGEF Vav
Description: as §1, §2

PDZRhoGEF = test: Binding specificity of aptamers in yeast; design: key: +++^1 and +^1 represent respectively a full and a partial (see FIG. 1) binding capacity; +++^1 and +^1 represent respectively a full and a partial (see FIG. 1) binding capacity; −−^1 represents a lack of binding; details: RhoGEF PDZRhoGEF
Description: as §1, §2

Dbl = biological target: T2, Dbl; test: Binding specificity of aptamers in yeast; design: key: +++^1 and +^1 represent respectively a full and a partial (see FIG. 1) binding capacity; +++^1 and +^1 represent respectively a full and a partial (see FIG. 1) binding capacity; −−^1 represents a lack of binding; details: RhoGEF Dbl
Description: as §1, §2

Binding in yeast (p115RhoGEF) | Binding in yeast (Vav) | Binding in yeast (PDZRhoGEF) | Binding in yeast (Dbl) | Molecule | Interaction with TrioGEFD2 in mammalian cells (TrioGEFD2)
– | – | – | – | AREGADGAICGYNLATLVMLGPSERVFCPLCEPCSSDIYELM [TRIPα, 42-amino acid peptide corresponding to the variable region of TRIAPα] | interacts with TrioGEFD2 in mammalian cells
−−^1 | −−^1 | −−^1 | −−^1 | TRIAPα: aptamer of 154 amino acids: variable region of 42 amino acids inserted into the thioredoxin protein; tested as GST fusion (protein) MSDKIIHLTDDSFDTDVLKADGAILVDFWAEWCGPAREGADGAICGYNLATLVMLGPSERVFCPLCEPCSSDIYELMGPCKMIAPILDEIADEYQGKLTVAKLNIDQNPGTAPKYGIRGIPTLLLFKNGEVASATKVGALSKGQLKEFLDANLA | –
